Data reported in the DeepSol protein solubility set.

Assay: soluble on expression in E. coli; label from the status in PepcDB or PDB records

| Sequence | soluble on expression in E. coli |
| --- | --- |
| MKLAYWMYAGPAHIGTLRISSSFRNVHAIMHAPLGDDYFNVMRSMLERERNFTPVTTSVVDRNVLARGSQEKVIDNILRKDTEERPDLIVLTPTCTSSILQEDLQNFVERAKESAQCDVLLADVNHYRVNELQAADRTLEQIVRFYLDRAQRQGTLPSQRTEQPSVNILGMTTLGFHNRHDTTELQRLMADLGITVNAVIPAGASVEELQHLPRAWFNLVPYREVGLLTAQYLQDTFDQPMVAIAPMGITATADCIRQIQQVLNQQGAAVDFEPFIDRQTRFASEAAWFSHSIDCQNLTGKRAVVFGDNTHAAAFTKILSREMGIHVVLAGTYCKHDADWFEAEVAGYCDRVLISDDHNAIADAIAELEPAAIFGTQMERHVGKRLNIPCGVIAAPVHIQNFPVGYRPFVGYEGANQIVDLVYNSFTLGMEDHLLEIFGGHDTKEVLTKTVSAGSDLDWKPDGLTELNRIPGFVRGKVKRNTEKYAREQGLTAITAEVLYAAKEALGALEHHHHHH | not soluble |
| MKLGILHFTDSHIKSATDWILSEFSSLVASVKTIYEECDRIYIVFTGDVVYSGSEEEYILASKFLNSIRSLLKTLYKDKVYEQIIFTPGNHDCNFNMDRQARKML | not soluble |
| MKLGVIAAMDLELQKLLEYFPPQRKIQLAKNTFYIYEQKTSQVIMVCAGQGKTNATLYSQILIDSFQIEQLINIGICGCLNEKLQLFEMVLGEEYCHYDIRERQSINKFPYQLYYKGDKGMLAELQHLDEKIKCVRFGTGEGFVCDTTEKRNLIEQFSIDCVDMESAAIAQCCFLNDCAFVSIRIICDRADANAVKVTEDTQTQAMEKVFELVCAYIN | not soluble |
| MKLILNTPGLYLCKRGECFQIQSENEKREIAATKVDQIMITTHAALTTDAIELALEYNIDIIFLKNTGQPMGRVWHSKLGSISTIRRKQLFLQDSPLGLQLVKEWILEKMDNQIRLLKKLEVNRRDDEKRAIIRDTIEKIEKQKANIMSINNKETVNNVRNMLLGYEGTAGRVYFETLGKLIPEKYAFEARSRNPAKDPFNCMLNYSYGILYSSVEKACIIAGLDPYIGIMHTDNYNKKALVYDMVEMYRGYMDEIVFRLFSTKKVQDDFFDKIEDGYYLNKEGKQLLISEYNKELEVKMNYRGRRIEFANIIQYDCHQIANRILKEDIPC | soluble |
| MKLIWSPETASKAYIDTVKSCENLGTPGAAELVAAMAAGWNANLIVETWSEGETIAISVGLNIASRHTNGRHICIVPNARSQTAYLQAMAEQSCSNLPETIIMNEEGEELEHTMQTLQGIDFLVVDWDQKDFAANVLRNAVFGSRGAVVVCRSGYRRSTSCFSWTKAFSDRNVVRTVTLPVSGGLEIAHVAAARSSGKSDNNSNKRKWIKHFDQRSGEEHVIRK | soluble |
| MKLKKTDVFNLDGTVKQTAFIHDQKTGKKNTLYLKPVQQDLMLYHAWLIQQNMNSEWLFPSTSRPDRPITEKQFYKIMARVGDLLGINYLGTHTMRKTGAYRVYTQSNYNIGLVMHLLNHSSEAMTLTYLGLDQASRENMLDQIDFG | not soluble |
| MKLKVTVNGAGKAGEGEIPAPLAGTVSKILVKEGDTVKAGQTVLVLEAMKMETEINAPTDGKVEKVLVKERDAVQGGQGLIKIG | soluble |
| MKLKYSGLTASGNTHPKFTRGDIYRDQYGGMVTIKGVAERRITYRREGYEYDCVMPVYQFRRDFTLVQAAPRSKPTSREKARANIQEIKKMLNVFRGKK | not soluble |
| MKLLKTKNCLYYRNGDNKLSEYQLLTQFNPAFINKKIKMCEFQIESMYHMSASTTTCDEIMGVVSVSYPIEKLVIKIIETKAGLQNYKNRSINNMALLKKVLNHYTEKEQKQVVKYMRSNGRYKPYNVIERLQVDLYQASIKQRSERQKQRNTAIENSKIARVNAYHQSSYVKVV | not soluble |
| MKLPKEGDFITIQSYKHDGRLHRTWRDTMVLKTTENAVIGVNDHTLVTEADGRRWVTREPAIVYFHKKYWFNIIAMIRDNGISYYCNLASPYVLDQEALKYIDYDLDVKVFADGEKKLLDVDEYEIHKKEMHYSPDIDYILKEHVKILVDWINNGKGPFSQSYVNIWYKRYLELRNR | not soluble |
| MKLSTAFLTFSAVFLYGSAQQLLYLNSFKGMRVNNDMYEWCNIYISAQSDDTSFLASVYIVTAKNSKSLLNIMQDNLQNTGEIQGYPVDPPAYLTTSLSDNEMKQLNGVIYLSSAGQRVDSTFHVYDIYQARKMNIIANGYSTFLFLNSNMQTKPSRSSIISDWNQIKGSSGLLYAGFPLDSKVNVYPIFSNPITIQNSEVLFPNVETFSLSLAAFYITTNNGFSFKIKPGYYNINGTNTTSVYSTTGFYMKPAGEDDSTIVVNIENDIRCSGTSGASVVGHFPTGGNVTVGFYNGMAKYEQSAPPEDYPSYNPWTIPFIGQHFKVSSTNGTAGQYYVQYFVNQRPPRQTTPPETTTKSAGAVKLFTSVVTLLMYWL | not soluble |
| MKLTKGKVLLAGCMAMAMSHSVLAQDIKVAIVGAMSGPVAQYGDMQFTGARQAIADINASGGIKGDKLVGVEYDDACDPKQAVAVANKVINDGIRYVIGHLCSSSTQPASDIYEDEGVIMITPAATNADLTTRGYKMIMRTTGLDSDQGPTAAKYIVETIKPKRIAVVHDKQQYGEGLARSVRDSLKEQGAEVVLFEGVTAGDKDFSTLVARLKKENVDFVYFGGYYPEMGQILRQAKQAGLTARFMGPEGVGNSSLSNIAGEASEGMLVTLPKRYDQVPANQPIVDALKAKKLDPTGPFVWTTYAALQSLTTAMERTGSKEPADLANDLKTGKPVETVMGPLSWDDKGDLKGFEFGIFEWHADGSSTAVK | not soluble |
| MKMKLTAAIIAAFVIIMGCAGGPKASKADELDLAIRDTSDYLNDNIPKGNKIIILNIQSDYASLSDYIIDELIANAVNDKIFKVVDRAQLEQIRAELNFQWSGEVDDKSALEIGKFLGAQTIVSGAISELGDRYRMRLRALNVQTSQVQGQYNRNIAAGKTIAALMKGGKSANTVYGGRTASGNANDTTAANQTPSRQPATPSSPQGSTKPVTTTYKIGDTGPAGGLIFYDKGNNIGGWRYLEAAPSDLGPNKFITEDPGSLPKNLYDLWEKTDGDKGRGVGKGKYNTEFLMGIAQARGGFNWAIRLCDEYELNGYNDWFMPSRDELNFMYGNLHMKGLGNFRLEQYWSSTGWQDTWGSYSAWYINFEDGTAAYQNASQPRRFRPIRQF | not soluble |
| MKMKSLFVAMITFFSAAPFAHWQPIGNAEYTWGPFHVYTIGLFSETGTYQENERPLMLSFKYEKPIEGKNFAITLIKEIETLKLNDGDTQSWLKEMQATFPDFSPNDILNYIALPDRGYFVLNDTVLEHDFDAKFNQAFIGIWLAPNSTFVKLQPQLLGKTKSNHEATEFYLKPEIESFDEQDSTPELPPNYLLDSQKKSQG | not soluble |
| MKNADKNFEKEKYIDSLRDYLAVLDKVDDESLKAEICYKVSQIYHYLQKDDPQNALKYAQMSMDLHAKHGEDDLTVLDLINIASILMDSGDKKGALQKLDEAIQKAKDMGDDEIQLIAMSSKASMIAEDNREEALKLYQEVMRKSQEIGDIEDYFDAVQGIVNMVREEDEHRAFEMIMKAIEELENYISGIKSKKEKKDVADSFSYLYDTASDIAMSIGDVDQAMEIAKRLQKIVS | not soluble |
| MKNFLLLTLILLTACNNSEENTQSIIKNDINKTIIDEEYVNLEPINQSNISFTKHSWVQTCGTQQLLTEQNKESISLSVVAPRLDDDEKYCFDFNGVSNKGEKYITKVTLNVVAPSLEVYVDHASLPTLQQLMDIIKSEEENPTAQRYIAWGRIVPTDEQMKELNITSFALINNHTPADLVQEIVKQAQTKHRLNVKLSSNTAHSFDNLVPILKELNSFNNVTVTNIDLYDDGSAEYVNLYNWRDTLNKTDNLKIGKDYLEDVINGINEDTSNTGTSSVYNWQKLYPANYHFLRKDYLTLEPSLHELRDYIGDSLKQMQWDGFKKFNSKQQELFLSIVNFDKQKLQNEYNSSNLPNFVFTGTTVWAGNHEREYYAKQQINVINNAINESSPHYLGNSYDLFFKGHPGGGIINTLIMQNYPSMVDIPSKISFEVLMMTDMLPDAVAGIASSLYFTIPAEKIKFIVFTSTETITDRETALRSPLVQVMIKLGIVKEENVLFWADLPNCETGVCIAV | soluble |
| MKNILVFLMLGVMLSALQELRYPSGYRVNGSRVFYTYIELTEIDMTTFEILNERYAKDKNAVYYEGKVIVNVDPEDFELLGDFFGKTKNNIYIGNTIIKDADINSFELLGHSRSRDKNHVFFADKILKNADPATYIVFNNKYAKDKNHVYFWDKEIENADAPTFEVLNGEYGKDKNRVYYNSRVVRKADPATFRILEGPFSKDKNYVYVTGEIFEKADVKTFQTLGDYGYAKDKRYVYRYNKILEGEKPADFLPPPQPVIMY | not soluble |
| MKNKADNKKRNFLTHSEIESLLKAANTGPHAARNYCLTLLCFIHGFRASEICRLRISDIDLKAKCIYIHRLKKGFSTTHPLLNKEVQALKNWLSIRTSYPHAESEWVFLSRKGNPLSRQQFYHIISTSGGNAGLSLEIHPHMLRHSCGFALANMGIDTRLIQDYLGHRNIRHTVWYTASNAGRFYGIWDRARGRQRHAVL | soluble |
| MKNKGLLLKVSTGLAAVSFLFSEYLFKISFKRVDHVPETSQEKQKYAASYWEYVDWFRRINKEHWTFQTKNETERMSAYFIPSKEENSKKVVIIAHGYKGNGETMSSYAKMFYEMGFNVLLPDDRGHGQSMGEYISFGWLDRLDYLQWLKKIIKRVGPKSEILLFGVSMGASTVEMLSGEDLPSQVKCVIADCGYSSIDEEMTFLLKHHYHLPKYPFYPLVSTINRYRLGYYLGDVSSVEQLKKNKLPIFFIHGENDDYVPSYMSLENYEATTAAKELWIVNNATHAESYWLDPLEYKKRIKDFLNKYFNDKN | not soluble |
| MKNKTKNATLKSIIDVILYENPSTQDEIAERLGITRRYVTKLLQPLIREGVVRRAYIVDIKKFDEFPELFGEEVTSREYAGSFFIKEILRDMAQHVCKQLNKSFRSLEEYDEDLANEALKMDYITNTMHEKVRSSVDTAIAMNPYSEFSKTMAFTEIAYDLERIGDHSAIIANFAIKESYEVDPAMMEYLRDMFSIAVEMVKTAMDAFLNEKLELKATLMSLEDDIHRIQKNALNCVATQMAETPFEDKERSTYYISLSRVVKTLERIADISIEIFDTAGEYYRNIPRTTTPERFRRREREES | soluble |
| MKPATLTAELDVRSGGRYRISFVSDDGEYFEAGGTYREVVPNELLVFTWAWHSTPERESLVTISFKPDSAGTLMIFHHAQFFDEAARDNHRRGWSSFLDKLDAFVALEHHHHHH | not soluble |
| MKPDIYALLERALLSGDPDEKGRLTDEAFAAVQNMDGAETNTPPLDFPRAGRPDKPVLVAPSQLTPRKMNTTEGYAAMLHAIAHIEFNAVNLALDAAYRFRTLPFQFVRDWVKVAKEEVYHFRLMRERLRAFGFDYGDFEAHNHLWDMAYKTAYDPLLRMALVPRVLEARGLDVTPGIRAKVAQRGDSETCGVLDIIYRDEVGHVAIGNRWYQHLCRERGLEPIALFRSLIARYDMFIFRGYVNIEAREKAGFSRFELDMLEDFEQSLKQNKNTVMGHHHHHHSH | soluble |
| MKPNITWGLQKIQAHGIADNTIYATEGTQIIFTVTSPWIPVFKVNDDVKIALTLTRHEEAWWIINQSTEYCCTVNDQIVEPHHRMRLNEGDLIEWGLSS | not soluble |
| MKPSVILYKALPDDLLQRLQEHFTVHQVANLSPQTVEQNAAIFAEAEGLLGSNENVNAALLEKMPKLRATSTISVGYDNFDVDALTARKILLMHTPTVLTETVADTLMALVLSTARRVVEVAERVKAGEWTASIGPDWYGTDVHHKTLGIVGMGRIGMALAQRAHFGFNMPILYNARRHHKEAEERFNARYCDLDTLLQESDFVCLILPLTDETHHLFGAEQFAKMKSSAIFINAGRGPVVDENALIAALQKGEIHAAGLDVFEQEPLSVDSPLLSMANVVAVPHIGSATHETRYGMAACAVDNLIDALQGKVEKNCVNPHVAD | soluble |
